What is called Kd is the concentration at which binding is half-saturated. The EC50 is the concentration that produces a half-maximal response. A low value points to greater potency.

The results in this text go back to US20180086841A1 (Merck Sharp & Dohme, published 2018).

For test [1], the target named is T1, human CD27-Fc fusion protein (human, UniProt P26842 21-191).
T1 construct: not shown: Fc part
The test is described as follows: SPR Biacore T200, CD27-Fc amine-coupled, antibody injected, 1:1 Langmuir fit.

Test [2] has as its target T2, human CD27 A59T-Fc fusion protein (human, UniProt P26842 21-191).
T2 construct: not shown: Fc part
T2 chain: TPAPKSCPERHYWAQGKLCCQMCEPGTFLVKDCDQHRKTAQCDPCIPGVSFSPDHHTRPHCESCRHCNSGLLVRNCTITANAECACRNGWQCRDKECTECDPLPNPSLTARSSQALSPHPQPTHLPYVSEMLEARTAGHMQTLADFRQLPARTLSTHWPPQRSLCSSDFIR
Described as above.

Test [3] deals with T3, rhesus macaque CD27-Fc fusion protein (rhesus macaque, UniProt P26842 21-191 (human entry), limits assumed).
T3 construct: not shown: Fc part
T3 chain: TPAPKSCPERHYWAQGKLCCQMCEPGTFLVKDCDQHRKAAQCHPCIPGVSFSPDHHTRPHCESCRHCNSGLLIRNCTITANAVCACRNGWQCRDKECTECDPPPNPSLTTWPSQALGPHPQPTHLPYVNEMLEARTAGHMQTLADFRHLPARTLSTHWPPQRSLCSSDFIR
The test is described as above.

Test [4] has as its target T4, human CD27 (human, UniProt P26842 21-260). The test is described as follows: cell-based or functional assay.
Test [5] concerns the target human CD27 (A59T) (human, UniProt P26842 21-260). In words: cell-based or functional assay.
For test [6], the target named is T5, Macaca mulatta CD27 (mmCD27) (Macaca mulatta (rhesus) / Macaca …, UniProt P26842 21-260 (human entry)).
T5 chain: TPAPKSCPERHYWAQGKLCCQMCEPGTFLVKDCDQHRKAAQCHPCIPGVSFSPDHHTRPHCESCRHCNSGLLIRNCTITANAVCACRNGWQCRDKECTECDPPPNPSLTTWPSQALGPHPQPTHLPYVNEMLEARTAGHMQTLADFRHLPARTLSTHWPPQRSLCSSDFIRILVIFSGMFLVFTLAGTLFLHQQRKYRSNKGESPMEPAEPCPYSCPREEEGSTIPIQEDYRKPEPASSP
In words: cell-based or functional assay.

In test [7] the target is T4, human CD27. In words: flow cytometry on primary T cells. (Flow cytometry measures light scatter and fluorescence of single cells or particles in a stream.)
The target in test [8] is T4, human CD27. In words: cell ELISA on transfected CHO cells.
Protocol: (§1) Purified antibodies were assayed for binding to human CD27 expressing CHOK1 cells using a cell-based ELISA format. Human CD27 expressing CHOK1 cells were plated in 96-well tissue-culture plates in 50 μl of DMEM/F12, 10% BCS (bovine calf serum) (CHO-K1 media). Cells were plated at either 2×10⁴ cells/well two days prior to the assay or 4×10⁴ cells/well one day prior to the assay. Media was removed from the wells prior to the assay followed by incubation of mAb in 100 μL fresh culture medium at a starting concentration of 10 μg/mL and 8 step 1:5 serial dilutions (hIgG4 antibodies) or starting concentration of 50 μg/mL and 8 step 1:5 serial dilutions (hIgG1 antibodies). The antibodies were incubated for 30-60 minutes at room temperature and washed 3 times with PBS/0.05% Tween 20 using a cell ELISA washing protocol on the Biotek EL405x Select CW plate washer.
Test [9] has as its target T4, human CD27. The test is described as follows: cell ELISA on human CD27 CHOK1 cells, hIgG1. In general terms: An ELISA detects its analyte on a solid surface through an enzyme-linked reagent.
Protocol: as §1
The target in test [10] is T4, human CD27. In words: flow cytometry MFI, CD4+ T cells of human PBMC, N=2 donors.
Protocol: Labeled cells were washed by re-suspending them in 150 ul of staining buffer (SB) followed by centrifugation at 300 g for 5 minutes. Cells were then resuspended in 100 ul of SB containing primary anti-CD27 antibodies at various concentrations, incubated in the dark at 4° C. for 30 minutes, followed by washing and centrifugation steps as previously described. […] Cells were incubated for 30 minutes at 4° C. in the dark, followed by washing and centrifugation steps. Next, cells were stained with a cocktail of phenotypic antibodies for surface markers (CD3, CD4, CD8, CD11b) and incubated for 30 minutes at 4° C. in the dark, followed by washing and centrifugation steps. […] Samples were acquired in a LSR-Fortessa flow cytometer (BD Biosciences) using the high throughput sampler and data analyzed by FlowJo software (Tree Star Inc).
In test [11] the target is T4, human CD27. The test is described as follows: flow cytometry MFI, CD8+ T cells of human PBMC, N=2 donors.
The target of test [12] is T6, His9G-tagged human CD27 recombinant protein (human, UniProt P26842 21-191).
T6 construct: In-house, transient transfection of HEK293 cells; also called Human CD27/His
The test is described as follows: SPR Biacore 4000, antibody captured on anti-human Fc, His9G-tagged CD27 injected, 1:1 fit. (In SPR one partner is held on a chip, and binding of the other changes the refractive index at the surface.)
Description: (§2) Flow cell spots modified with anti-human Fc antibody but lacking CD27 antibodies were used as reference. […] The chip surface was regenerated with a 30 second injection of 3M MgCl₂ after each injection cycle.
(§3) Data were double referenced by subtracting the response from a blank surface and that from a buffer injection and used for analyzing the rate constant of association (kₐ) and dissociation (kd), and the equilibrium dissociation constant KD. The resulting data sets were fitted with a Langmuir 1:1 binding model using the Biacore 4000 BIAevaluation software, version 1.0 (GE/Biacore).

For test [13], the target named is T7, His9G-tagged cynomolgus CD27 recombinant protein (cynomolgus, limits assumed).
T7 construct: In-house, transient transfection of HEK293 cells; also called Cyno CD27/His
T7 chain: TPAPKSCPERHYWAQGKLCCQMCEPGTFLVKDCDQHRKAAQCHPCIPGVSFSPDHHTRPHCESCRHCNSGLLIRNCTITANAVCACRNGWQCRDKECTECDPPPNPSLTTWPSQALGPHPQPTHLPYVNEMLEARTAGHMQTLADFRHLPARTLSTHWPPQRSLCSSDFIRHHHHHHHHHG
The description is as above.
Description: as §2, §3

B1: 131AVH6VL6-hIgG2 (antibody)
heavy: EIQLVQSGAEVKKPGASVKVSCKASGYTFTNYGMNWVKQAPGQGLKWMGWINTNTGEPTYAEEFKGRFTFTLDTSISTAYMELSSLRSEDTAVYYCAREGDAMDYWGQGTTVTVSSASTKGPSVFPLAPCSRSTSESTAALGCLVKDYFPEPVTVSWNSGALTSGVHTFPAVLQSSGLYSLSSVVTVPSSNFGTQTYTCNVDHKPSNTKVDKTVERKCCVECPPCPAPPVAGPSVFLFPPKPKDTLMISRTPEVTCVVVDVSHEDPEVQFNWYVDGVEVHNAKTKPREEQFNSTFRVVSVLTVVHQDWLNGKEYKCKVSNKGLPAPIEKTISKTKGQPREPQVYTLPPSREEMTKNQVSLTCLVKGFYPSDIAVEWESNGQPENNYKTTPPMLDSDGSFFLYSKLTVDKSRWQQGNVFSCSVMHEALHNHYTQKSLSLSPGK
light: EIVLTQSPATLSLSPGERATLSCSASSSVSYMHWYQQKPGQAPKRWIYDTSKLASGVPARFSGSGSGTDYSLTISSLEPEDFAVYYCQQWNSYPFTFGQGTKLEIKRTVAAPSVFIFPPSDEQLKSGTASVVCLLNNFYPREAKVQWKVDNALQSGNSQESVTEQDSKDSTYSLSSTLTLSKADYEKHKVYACEVTHQGLSSPVTKSFNRGEC
notes: also called 131A6 IgG2 (humanized)
As to B1, the Kd is 6.4 nM in [1], 8.2 nM in test [2] and 5.5 nM in test [3].

B2: hCD27.15-4B IgG4 (antibody, V domains shown)
VH: QVQLVQSGAEVKKPGASVKVSCKASGFIIKATYMHWVRQAPGQRLEWMGRIDPANGETKYDPKFQVRVTITADTSASTAYMELSSLRSEDTAVYYCARYAWYFDVWGQGTLVTVSS
VL: DIQMTQSPSSLSASVGDRVTITCRASENIYSFLAWYQQKPGKAPKLLIYHAKTLAEGVPSRFSGSGSGTDFTLTISSLQPEDFATYYCQHYYGSPLTFGQGTKVEIKR
For the molecule B2, the “NF-κB-luciferase reporter assay, Fold Change values at 2.5 µg/ml” value amounted to 1.82 fold change in test [4], 0.97 fold change in test [5] and 0.99 fold change in [6].

B3: hCD27.131A VH7VL8 huIgG1 (antibody, V domains shown)
VH: EIQLVQSGAEVKKPGASVKISCKASGYTFTNYGMNWVKQAPGQGLKWMGWINTNTGEPTYAEEFKGRFTFTLDTSATTAYLEISSLRSEDTAVYYCAREGDAMDYWGQGTTVTVSS
VL: EIVLTQSPATLSASPGERVTLSCSASSSVSYMHWYQQKPGQAPKRWIYDTSKLASGVPARFSGSGSGTDYSLTISSMEPEDFAVYYCQQWNSYPFTFGQGTKLEIK
Regarding B3, the “EC50 relative to 131AVH6VL6-hIgG1” value in [7] was ≤ 10 % above the EC50 of 131AVH6VL6-hIgG1. Besides, the “fold EC50 against 131AVH6VL6-hIgG1” value in test [8] was at most 2 fold. Further, the 50% effective concentration (EC50) amounted to 0.144 nM in test [9], 0.118 nM in [10] and 0.118 nM in [11]. For the same molecule, the Kd in [12] was 44.9 nM; in test [13] it was 36.5 nM.

B4: hCD27.131A VH8VL8 huIgG1 (antibody, V domains shown)
VH: EIQLVQSGAEVKKPGASVKVSCKASGYTFTNYGMNWVKQAPGQGLKWMGWINTNTGEPTYAEEFKGRFTFTLDTSISTAYMELSSLRNEDTAVYYCAREGDAMDYWGQGTTVTVSS
VL: EIVLTQSPATLSASPGERVTLSCSASSSVSYMHWYQQKPGQAPKRWIYDTSKLASGVPARFSGSGSGTDYSLTISSMEPEDFAVYYCQQWNSYPFTFGQGTKLEIK
Turning to B4, the “EC50 relative to 131AVH6VL6-hIgG1” value in test [7] is ≤ 10 % above the EC50 of 131AVH6VL6-hIgG1. Moreover, the “fold EC50 against 131AVH6VL6-hIgG1” value in test [8] is at most 2 fold. For the same molecule, the EC50 was determined as 0.145 nM in [9], 0.135 nM in test [10] and 0.131 nM in [11]. Further, the equilibrium dissociation constant (Kd) turned out to be 61 nM in test [12] and 32.3 nM in [13].

B5: hCD27.131A VH8VL6 huIgG1 (antibody, V domains shown)
VH: EIQLVQSGAEVKKPGASVKVSCKASGYTFTNYGMNWVKQAPGQGLKWMGWINTNTGEPTYAEEFKGRFTFTLDTSISTAYMELSSLRNEDTAVYYCAREGDAMDYWGQGTTVTVSS
VL: EIVLTQSPATLSLSPGERATLSCSASSSVSYMHWYQQKPGQAPKRWIYDTSKLASGVPARFSGSGSGTDYSLTISSLEPEDFAVYYCQQWNSYPFTFGQGTKLEIK
Turning to B5, the “EC50 relative to 131AVH6VL6-hIgG1” value in test [7] is ≤ 10 % above the EC50 of 131AVH6VL6-hIgG1. For the same molecule, the “fold EC50 against 131AVH6VL6-hIgG1” value in test [8] is at most 2 fold. For the same molecule, the half-maximal effective concentration (EC50) in test [9] came to 0.298 nM; in test [10] it was 0.124 nM; in test [11], 0.113 nM. For the same molecule, the equilibrium dissociation constant (Kd) in test [12] was 64.4 nM; in [13], 46.6 nM.

B6: hCD27.131A VH8VL7 huIgG1 (antibody, V domains shown)
VH: EIQLVQSGAEVKKPGASVKVSCKASGYTFTNYGMNWVKQAPGQGLKWMGWINTNTGEPTYAEEFKGRFTFTLDTSISTAYMELSSLRNEDTAVYYCAREGDAMDYWGQGTTVTVSS
VL: EIVLTQSPATLSLSPGERATLSCSASSSVSYMHWYQQKPGQAPKRWIYDTSKLASGVPARFSGSGSGTSYSLTISSLEPEDFATYYCQQWNSYPFTFGQGTKLEIK
As to B6, the “EC50 relative to 131AVH6VL6-hIgG1” value in test [7] was ≤ 10 % above the EC50 of 131AVH6VL6-hIgG1. In addition, the “fold EC50 against 131AVH6VL6-hIgG1” value in test [8] was at most 2 fold. For the same molecule, the EC50 came to 0.262 nM in [9], 0.115 nM in test [10] and 0.111 nM in test [11]. Besides, the Kd in test [12] was determined as 63.3 nM; in test [13] it was 44.1 nM.
